This is an account of results in the supplement of paper PMC9112550, “Optimization of the antimicrobial peptide Bac7 by deep mutational scanning” (BMC Biology, 2022).

The series relates to Escherichia coli TOP10. The series can be described thus: shrunken log2 fold change of peptide-encoding DNA abundance (4.5 h post-induction vs induction); higher = less antimicrobial activity (less host growth inhibition). To be noted: time post-induction: 4.5 h; library: site-saturation at positions 5, 18, 19, 20.
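Further: peptides expressed intracellularly from a pBAD plasmid library in pooled LB shake-flask culture, induced with 0.3% L-arabinose, DNA abundance read by NGS, three biological replicates, DESeq2 with apeglm shrinkage.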

Turning to RRIRRRPPRLPRPRPRPPNEPRP, the “shrunken log2 fold change” value came out at 0.804.

As for RRIRYRPPRLPRPRPRPQGNPRP, the “shrunken log2 fold change” value is -0.0344.

RRIRMRPPRLPRPRPRPEGDPRP: the “shrunken log2 fold change” value is 4.15.

Regarding RRIRIRPPRLPRPRPRPIQNPRP, the “shrunken log2 fold change” value is -0.225.

Take RRIRMRPPRLPRPRPRPWTSPRP: the “shrunken log2 fold change” value stood at 0.0303.

With RRIRMRPPRLPRPRPRPGMIPRP, the “shrunken log2 fold change” value is -0.00139.

On to RRIRCRPPRLPRPRPRPIENPRP, for which the “shrunken log2 fold change” value is -0.209.

Take RRIRKRPPRLPRPRPRPPFGPRP: the “shrunken log2 fold change” value came to 0.715.

For RRIRQRPPRLPRPRPRPSMIPRP, the “shrunken log2 fold change” value is -0.603.

For the sequence RRIRKRPPRLPRPRPRPIQSPRP, the “shrunken log2 fold change” value was -0.0332.

In the case of RRIRLRPPRLPRPRPRPMMVPRP, the “shrunken log2 fold change” value was -0.145.

Turning to RRIRYRPPRLPRPRPRPIWWPRP, the “shrunken log2 fold change” value turned out to be 0.136.

Regarding RRIRVRPPRLPRPRPRPFYWPRP, the “shrunken log2 fold change” value is -0.103.

Turning to RRIRLRPPRLPRPRPRPWTEPRP, the “shrunken log2 fold change” value is -0.01.

Turning to RRIRERPPRLPRPRPRPNGSPRP, the “shrunken log2 fold change” value was -0.263.

With RRIRCRPPRLPRPRPRPILQPRP, the “shrunken log2 fold change” value was -0.0117.

For the sequence RRIRSRPPRLPRPRPRPTPMPRP, the “shrunken log2 fold change” value was found to be 0.61.

For RRIRERPPRLPRPRPRPQIKPRP, the “shrunken log2 fold change” value was -0.723.

Turning to RRIRCRPPRLPRPRPRPNYSPRP, the “shrunken log2 fold change” value is -0.522.

As for RRIRIRPPRLPRPRPRPKRCPRP, the “shrunken log2 fold change” value was -0.00138.

In the case of RRIRARPPRLPRPRPRPYEYPRP, the “shrunken log2 fold change” value is -0.04.

Turning to RRIRNRPPRLPRPRPRPRNWPRP, the “shrunken log2 fold change” value is -0.149.

For RRIRTRPPRLPRPRPRPHKEPRP, the “shrunken log2 fold change” value was -0.0263.

As to RRIRARPPRLPRPRPRPLFRPRP, the “shrunken log2 fold change” value was 0.881.

Take RRIRLRPPRLPRPRPRPCNFPRP: the “shrunken log2 fold change” value was -0.0369.

Take RRIRYRPPRLPRPRPRPDSMPRP: the “shrunken log2 fold change” value amounted to 0.00804.

For RRIRERPPRLPRPRPRPHWVPRP, the “shrunken log2 fold change” value turned out to be 0.172.

Take RRIRRRPPRLPRPRPRPCTPPRP: the “shrunken log2 fold change” value is -0.0236.

Regarding RRIRIRPPRLPRPRPRPDRYPRP, the “shrunken log2 fold change” value was -0.032.

In the case of RRIRHRPPRLPRPRPRPQAGPRP, the “shrunken log2 fold change” value is -0.0176.

RRIRHRPPRLPRPRPRPDARPRP: the “shrunken log2 fold change” value was 0.133.

RRIRMRPPRLPRPRPRPSDVPRP: the “shrunken log2 fold change” value was 0.141.

As for RRIRHRPPRLPRPRPRPQAIPRP, the “shrunken log2 fold change” value is -0.119.

For the sequence RRIRCRPPRLPRPRPRPRQFPRP, the “shrunken log2 fold change” value stood at 0.0823.

For the sequence RRIRFRPPRLPRPRPRPQWNPRP, the “shrunken log2 fold change” value was -0.345.

Regarding RRIRFRPPRLPRPRPRPHSKPRP, the “shrunken log2 fold change” value was -0.327.

As to RRIRTRPPRLPRPRPRPNTPPRP, the “shrunken log2 fold change” value was -0.17.

RRIRMRPPRLPRPRPRPTGMPRP: the “shrunken log2 fold change” value turned out to be 0.136.

Turning to RRIRPRPPRLPRPRPRPQFPPRP, the “shrunken log2 fold change” value is 0.0341.

Consider RRIRRRPPRLPRPRPRPAYHPRP, for which the “shrunken log2 fold change” value is 0.0468.

Regarding RRIRVRPPRLPRPRPRPYGNPRP, the “shrunken log2 fold change” value is -0.0775.

As for RRIRARPPRLPRPRPRPYEMPRP, the “shrunken log2 fold change” value is -0.0385.

In the case of RRIRWRPPRLPRPRPRPWKWPRP, the “shrunken log2 fold change” value is -0.0893.

Regarding RRIRERPPRLPRPRPRPPRKPRP, the “shrunken log2 fold change” value stood at 0.387.

With RRIRERPPRLPRPRPRPYYFPRP, the “shrunken log2 fold change” value was -1.04.

Turning to RRIRQRPPRLPRPRPRPICEPRP, the “shrunken log2 fold change” value worked out at 0.0925.

In the case of RRIRDRPPRLPRPRPRPGPHPRP, the “shrunken log2 fold change” value turned out to be 0.132.

Take RRIRGRPPRLPRPRPRPMVRPRP: the “shrunken log2 fold change” value was determined as 0.03.

In the case of RRIRIRPPRLPRPRPRPNDTPRP, the “shrunken log2 fold change” value was -1.01.

Turning to RRIRHRPPRLPRPRPRPGPCPRP, the “shrunken log2 fold change” value is -0.254.

Consider RRIRIRPPRLPRPRPRPLCQPRP, for which the “shrunken log2 fold change” value amounted to 0.127.

Consider RRIRHRPPRLPRPRPRPLVAPRP, for which the “shrunken log2 fold change” value is -0.103.

RRIRLRPPRLPRPRPRPMWWPRP: the “shrunken log2 fold change” value was 1.19.

As for RRIRIRPPRLPRPRPRPSYMPRP, the “shrunken log2 fold change” value is -1.53.

With RRIRCRPPRLPRPRPRPRTAPRP, the “shrunken log2 fold change” value came to 0.304.

For RRIRDRPPRLPRPRPRPGNFPRP, the “shrunken log2 fold change” value is -0.0885.

As for RRIRFRPPRLPRPRPRPMECPRP, the “shrunken log2 fold change” value is -0.0638.

As for RRIRSRPPRLPRPRPRPRRDPRP, the “shrunken log2 fold change” value was 0.297.

As to RRIRLRPPRLPRPRPRPHCIPRP, the “shrunken log2 fold change” value is -0.0543.

On to RRIRRRPPRLPRPRPRPEVIPRP, for which the “shrunken log2 fold change” value is -0.0658.

RRIRGRPPRLPRPRPRPFIKPRP: the “shrunken log2 fold change” value was -0.484.

For the sequence RRIRCRPPRLPRPRPRPMILPRP, the “shrunken log2 fold change” value is -0.352.

Consider RRIRNRPPRLPRPRPRPFWHPRP, for which the “shrunken log2 fold change” value came out at 0.189.
